Measurements from doi:10.1101/2025.09.03.673926.
Where “and” joins values, the source holds several entries; their conditions need not be identical. Equal entries are not always repeated.

Tests used:
[1] = target: TgSNF2L (aa 1 to 1556) (Toxoplasma gondii); assay: mass photometry
[2] = target: TgSNF2L (aa 1 to 1556) (Toxoplasma gondii); assay: SEC-MALS
[3] = target: TgSNF2LΔHydra (aa 1 to 1556 with an internal deletion between aa 880 and 1040) (Toxoplasma gondii); assay: mass photometry
[4] = target: TgSNF2LΔHydra (aa 1 to 1556 with an internal deletion between aa 880 and 1040) (Toxoplasma gondii); assay: SEC-MALS
[5] = target: TgSNF2L Hydra domain (886-1057) (Toxoplasma gondii); assay: native gel or EMSA
[6] = target: TgSNF2L Hydra domain (886-1057) (Toxoplasma gondii); assay: mass photometry
[7] = target: TgSNF2L Hydra domain (886-1057) (Toxoplasma gondii); assay: SEC-MALS

Substance: TgSNF2L (aa 1 to 1556) (enzyme)
- percent of particles dimeric [1]: 11%
- percent of particles monomeric [1]: 22%
- percent of particles tetrameric and bigger [1]: 59%
- stoichiometry N [2]: 4

Substance: TgSNF2LΔHydra (aa 1 to 1556 with an internal deletion between aa 880 and 1040) (enzyme)
- percent of particles monomeric and dimeric [3]: 71%
- percent of particles tetrameric and higher [3]: 19%
- stoichiometry N [4]: 2

Substance: TgSNF2L Hydra domain (886-1057) (domain or fragment)
- stoichiometry N [5]: 10 and 20
- stoichiometry N [6]: 10
- stoichiometry N [7]: 10
